Data taken from US5639868, “High-affinity RNA ligands for basic fibroblast growth factor” (NeXstar Pharmaceuticals, Inc.).

B1: 5A (ssRNA)
RNA: GGGAGCUCAGAAUAAACGCUCAAAUCUCCUCCCGUCGAAGCUAACCUGGCCACUUCGACAUGAGGCCCGGAUCCGGC
B2: 26A (ssRNA)
RNA: GGGAGCUCAGAAUAAACGCUCAACGUCAGAAGGCAACGUAUAGGCAAGCACACUUCGACAUGAGGCCCGGAUCCGGC
B3: 12A (ssRNA)
RNA: GGGAGCUCAGAAUAAACGCUCAAGGGGCAACGCUACAGACAAGUGCACCCAACUUCGACAUGAGGCCCGGAUCCGGC
B4: 7A (ssRNA)
RNA: GGGAGCUCAGAAUAAACGCUCAAUCGGCGAGCUAACCAAGACACUCGCUGCACUUCGACAUGAGGCCCGGAUCCGGC
B5: 2'-NH2 38B (ssRNA)
RNA: GGGAGGACGAUGCGGGCUGCGGUGCGCAUGUGUGGAAGACAGAGGGAGGUUAGAAUCGUGCCGCCAGACGACUCGCCCGA
modifications: 2'-NH2 at all C and U

Key:
[1] = biological target: T1, basic fibroblast growth factor (bFGF, FGF-2) (UniProt P09038 P09038:135-288); assay: filter; biphasic, Kd1 (mole fraction 0.5); Kd2 = 180 nM; conditions: tags: Bachem California; 18 kDa, 154 amino acids
T1 sequence (P09038 135-288, one chain of several): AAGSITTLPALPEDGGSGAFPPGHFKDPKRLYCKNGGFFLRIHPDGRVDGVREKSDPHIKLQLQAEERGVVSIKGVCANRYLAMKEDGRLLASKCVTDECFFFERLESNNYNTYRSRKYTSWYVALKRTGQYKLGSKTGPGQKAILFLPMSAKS
Protocol: (§1) This affinity screening allowed identification of those ligands with highest affinity for bFGF. Binding of a group of these ligands was analyzed over a range of bFGF concentrations (FIG. 8) and their dissociation constants (Kd's) were determined as described (Jellinek et al. (1993) Proc. Natl. Acad. Sci. U.S.A. 90:11227–11231) (Table IX). RNA concentrations were determined from their absorbance reading at […] (and were typically <100 pM). Binding reactions were done at 37° C. in phosphate buffered saline containing 0.01% human serum albumin and 1 mM DTT.
(§2) The minimal sequence information required for high-affinity binding to bFGF was examined for several of the 2'-NH_2 modified ligands by deletion analyses as described (Tuerk et al. (1990) J. Mol. Biol. 213:749–761).

[2] = biological target: T1, basic fibroblast growth factor (bFGF, …); assay: filter; monophasic; conditions: tags: Bachem California; 18 kDa, 154 amino acids
Protocol: as §1, §2

[3] = biological target: T1, basic fibroblast growth factor (bFGF, …); assay: inhibition; 125I-bFGF binding to high-affinity receptor, BHK cells, 4 C; conditions: tags: Bachem California; 18 kDa, 154 amino acids; label: 125I
Protocol: Receptor Binding Studies. bFGF was labeled with ^125I by the Iodo-Gen (Pierce) procedure as described by Moscatelli (1987) supra. […] The amount of 125I-bFGF bound to the low- and the high-affinity receptor sites was determined as described by Moscatelli (1987) supra.

[4] = biological target: T1, basic fibroblast growth factor (bFGF, …); assay: filter; biphasic, Kd1 (mole fraction 0.5); Kd2 = 270 nM; conditions: tags: Bachem California; 18 kDa, 154 amino acids
Protocol: as §1, §2

[5] = biological target: T1, basic fibroblast growth factor (bFGF, …); assay: filter; binding curve in figure only; PBS, 0.01% HSA, 1 mM DTT, 37 C; conditions: tags: Bachem California; 18 kDa, 154 amino acids
Protocol: Binding curves for modified RNA ligands 21A, 38B and random RNAs were determined (FIG. 8). RNA concentrations were determined from their absorbance reading at 260 nm and were typically less than 100 pM. Binding reactions were conducted at 37° C. in phosphate buffered saline containing 0.01% human serum albumin and 1 mM DTT. Heparin competitively displaced RNA ligands from both sequence families (FIG. 3), although higher concentrations of heparin were required to displace members of family 2 from bFGF.
as §1

Binder	IC50 [3] [nM]	further results
GGACGGCGUGGUCCGAGGGUGGCGAGU (ssRNA, 2'-NH2 at all C and U) [2'-NH2 58A-t]		Kd [1]: 1.8 nM
GGAGGACGAUGCGGAACGGGAGGUACGAGAGCGGGAGC (ssRNA, 2'-NH2 at all C and U) [2'-NH2 34B-t]		Kd [2]: 3 nM
B1	~1000	
B2	~1000	
B3	> 1000	
GGUGUGUGGAAGACAGCGGGUGGUUC (ssRNA, 2'-NH2 at all C and U) [2'-NH2 21A-t]		Kd [4]: 0.1 nM
B4	~1000	
B5		binding result [5]: binds
